We go through twelve molecules from paper PMC4457826, “Crystal Structure of USP7 Ubiquitin-like Domains with an ICP0 Peptide Reveals a Novel Mechanism Used by Viral and Cellular Proteins to Target USP7” (PLoS Pathogens, 2015).

Primed or numbered codes have the meaning given here. No end group written: not given here. FITC′ = fluorescein isothiocyanate label; GST = glutathione S-transferase fusion

In assay [1] the target is T1, myc-tagged USP7 D762R/D764R (human, UniProt Q93009 1-1102, D762R/D764R | D762R/D764R).
T1 construct: USP7, human, full length with D762R and D764R, sub-cloned into pCANmycUSP7; also called MRGR; D762R/D764R (MRGR) USP7; source: 293T cells, transfected (pCANmycUSP7), in lysate
T1 sequence (Q93009 whole entry D762R/D764R): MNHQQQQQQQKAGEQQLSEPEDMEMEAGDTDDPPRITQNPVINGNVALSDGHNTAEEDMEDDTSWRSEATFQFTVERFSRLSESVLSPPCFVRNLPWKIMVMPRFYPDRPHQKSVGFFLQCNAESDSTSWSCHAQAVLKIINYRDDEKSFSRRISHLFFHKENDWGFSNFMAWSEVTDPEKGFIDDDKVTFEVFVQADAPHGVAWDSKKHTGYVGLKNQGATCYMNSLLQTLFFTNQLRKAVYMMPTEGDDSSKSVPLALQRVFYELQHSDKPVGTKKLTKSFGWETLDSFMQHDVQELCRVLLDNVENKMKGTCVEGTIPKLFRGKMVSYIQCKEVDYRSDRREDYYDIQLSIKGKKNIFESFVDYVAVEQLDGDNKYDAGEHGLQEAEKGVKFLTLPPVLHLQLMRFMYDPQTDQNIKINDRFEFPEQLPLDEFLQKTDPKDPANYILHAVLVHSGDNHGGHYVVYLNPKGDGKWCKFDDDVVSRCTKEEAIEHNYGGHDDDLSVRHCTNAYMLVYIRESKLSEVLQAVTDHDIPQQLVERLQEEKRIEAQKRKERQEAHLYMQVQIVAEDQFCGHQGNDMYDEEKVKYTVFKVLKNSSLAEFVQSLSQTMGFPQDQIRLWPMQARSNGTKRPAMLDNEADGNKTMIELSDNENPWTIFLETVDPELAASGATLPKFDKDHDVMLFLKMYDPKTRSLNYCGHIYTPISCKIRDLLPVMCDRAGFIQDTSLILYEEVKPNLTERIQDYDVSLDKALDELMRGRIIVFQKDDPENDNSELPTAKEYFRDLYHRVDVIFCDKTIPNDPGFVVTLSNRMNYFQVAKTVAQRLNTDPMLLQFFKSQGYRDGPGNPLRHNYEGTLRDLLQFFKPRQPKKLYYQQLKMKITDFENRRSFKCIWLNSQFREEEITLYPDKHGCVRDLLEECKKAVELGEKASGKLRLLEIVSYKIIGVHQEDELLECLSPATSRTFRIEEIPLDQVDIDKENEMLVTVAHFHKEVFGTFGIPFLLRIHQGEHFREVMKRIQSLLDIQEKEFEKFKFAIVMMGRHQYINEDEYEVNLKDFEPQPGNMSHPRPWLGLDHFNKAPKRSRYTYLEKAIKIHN
As to the kind of experiment: co-IP; 293T cells transfected with myc-USP7 (with or without ICP0); RIPA lysate, anti-myc antibody and protein A/G agarose; Western blot for ICP0, GMPS or UHRF1. Conditions: partners not purified.

For assay [2], the target named is T2, full length USP7 (human, UniProt Q93009 1-1102).
T2 construct: Ubiquitin specific protease 7 (USP7, HAUSP), human, full length; also called FL-USP7; USP7-FL; source: Sf9 cells, purified (SEC)
T2 sequence (Q93009 whole entry): as the sequence (Q93009 whole entry D762R/D764R) above, with R762D, R764D counted along it
As to the kind of experiment: pull-down; GST pull-down: 250 μg USP7 protein with 250 μg GST fusion in 50 mM Tris pH 8.0, 100 mM NaCl, 5 mM DTT, 5% glycerol, on glutathione-sepharose overnight at 4°C; eluted with 30 mM reduced glutathione; Coomassie stained gel. Conditions: both partners purified.

The target of assay [3] is T3, USP7-CTD (535-1102) (human, UniProt Q93009 535-1102).
T3 construct: USP7, human, residues 535-1102 (spacer helix and five Ubl domains); Cloned in p15TV-L; also called WT USP7-CTD; C-terminal domain; source: E. coli BL21(DE3)mgk, purified (nickel-NTA, SEC)
T3 sequence (Q93009 535-1102): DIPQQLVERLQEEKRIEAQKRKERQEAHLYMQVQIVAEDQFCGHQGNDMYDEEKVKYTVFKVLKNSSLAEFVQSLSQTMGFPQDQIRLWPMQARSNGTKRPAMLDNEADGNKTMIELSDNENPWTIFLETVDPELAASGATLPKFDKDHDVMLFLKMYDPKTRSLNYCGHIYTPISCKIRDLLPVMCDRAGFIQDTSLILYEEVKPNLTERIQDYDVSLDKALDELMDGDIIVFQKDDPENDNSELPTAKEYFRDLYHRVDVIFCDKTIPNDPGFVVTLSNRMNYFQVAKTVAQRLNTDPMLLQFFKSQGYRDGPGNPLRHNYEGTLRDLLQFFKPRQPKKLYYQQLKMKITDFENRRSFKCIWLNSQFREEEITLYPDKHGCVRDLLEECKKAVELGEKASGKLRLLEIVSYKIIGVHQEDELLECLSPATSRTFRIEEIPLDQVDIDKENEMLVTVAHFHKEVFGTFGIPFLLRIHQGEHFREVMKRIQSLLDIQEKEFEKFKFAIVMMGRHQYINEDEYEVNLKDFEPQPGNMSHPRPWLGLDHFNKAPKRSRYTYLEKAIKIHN
The assay is described as above. As to conditions: both partners purified.

Assay [4] addresses T2, full length USP7. In words: fluorescence polarisation; USP7 proteins titrated (0 to 200 μM) into 40 nM N-terminally FITC-labeled peptide; 0.01% Triton X-100, 150 mM NaCl, 20 mM Tris pH 7.5. As to conditions: both partners purified. (In general: In fluorescence polarisation assays a small probe gives low polarisation when free and higher when bound to something large.)
The target of assay [5] is T4, USP7 Ubl123 D762A/D764A (human, UniProt Q93009 535-889, D762A/D764A | D762A/D764A).
T4 construct: USP7, human, residues 535-889 with D762A and D764A; Synthesized (Genscript), in pET15b; also called Ubl123 mutant D762A/D764A; source: E. coli BL21(DE3)mgk, purified (nickel-NTA, SEC)
T4 sequence (Q93009 535-889 D762A/D764A): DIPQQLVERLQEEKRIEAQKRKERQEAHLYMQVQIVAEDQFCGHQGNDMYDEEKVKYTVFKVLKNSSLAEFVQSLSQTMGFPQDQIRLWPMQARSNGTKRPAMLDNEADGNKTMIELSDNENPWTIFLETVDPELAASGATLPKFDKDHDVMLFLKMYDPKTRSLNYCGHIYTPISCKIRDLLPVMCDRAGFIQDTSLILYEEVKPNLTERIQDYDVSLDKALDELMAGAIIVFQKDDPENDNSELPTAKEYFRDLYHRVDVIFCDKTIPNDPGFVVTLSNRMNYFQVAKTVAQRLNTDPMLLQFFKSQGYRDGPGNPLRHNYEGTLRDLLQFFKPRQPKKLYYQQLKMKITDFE
The description is as above. As to conditions: both partners purified.

The target in assay [6] is T5, USP7 Ubl123 (535-889) (human, UniProt Q93009 535-889).
T5 construct: USP7, human, residues 535-889 (spacer helix 535-560 and Ubl1-3); Cloned in p15TV-L; also called native Ubl123; source: E. coli BL21(DE3)mgk, purified (nickel-NTA, SEC)
T5 sequence (Q93009 535-889): as the sequence (Q93009 535-889 D762A/D764A) above, with A228D, A230D counted along it
The assay is described as above. As to conditions: both partners purified.

Assay [7] addresses T6, USP7 Ubl123 D764A (human, UniProt Q93009 535-889, D764A).
T6 construct: USP7, human, residues 535-889 with D764A; Synthesized (Genscript), in pET15b; also called Ubl123 mutant D764A; source: E. coli BL21(DE3)mgk, purified (nickel-NTA, SEC)
The assay is described as above. Conditions: both partners purified.

In assay [8] the target is T7, USP7 Ubl123 E759A (human, UniProt Q93009 535-889, E759A).
T7 construct: USP7, human, residues 535-889 with E759A; Synthesized (Genscript), in pET15b; also called Ubl123 mutant E759A; source: E. coli BL21(DE3)mgk, purified (nickel-NTA, SEC)
T7 sequence (Q93009 535-889 E759A): as the sequence (Q93009 535-889 D762A/D764A) above, with E225A, A228D, A230D counted along it
The description is as above. Conditions: both partners purified.

Assay [9] has as its target T8, USP7 Ubl123 D762A (human, UniProt Q93009 535-889, D762A).
T8 construct: USP7, human, residues 535-889 with D762A; Synthesized (Genscript), in pET15b; also called Ubl123 mutant D762A; source: E. coli BL21(DE3)mgk, purified (nickel-NTA, SEC)
Described as above. Conditions: both partners purified.

For assay [10], the target named is T9, USP7 Ubl12 (535-776) (human, UniProt Q93009 535-776).
T9 construct: USP7, human, residues 535-776; Cloned in p15TV-L; source: E. coli BL21(DE3)mgk, purified (nickel-NTA, SEC)
T9 sequence (Q93009 535-776): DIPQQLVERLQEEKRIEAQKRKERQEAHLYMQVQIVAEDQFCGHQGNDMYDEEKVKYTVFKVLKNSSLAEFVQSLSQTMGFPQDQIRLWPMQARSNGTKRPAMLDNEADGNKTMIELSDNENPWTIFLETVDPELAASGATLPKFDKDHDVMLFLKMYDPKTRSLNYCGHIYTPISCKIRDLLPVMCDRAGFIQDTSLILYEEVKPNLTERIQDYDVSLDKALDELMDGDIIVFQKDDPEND
In words: pull-down; GST pull-down: 250 μg USP7 protein with 250 μg GST fusion in 50 mM Tris pH 8.0, 100 mM NaCl, 5 mM DTT, 5% glycerol, on glutathione-sepharose overnight at 4°C; eluted with 30 mM reduced glutathione; Coomassie stained gel. Conditions: both partners purified.

The target of assay [11] is T5, USP7 Ubl123 (535-889). Described as above. As to conditions: both partners purified.
The target of assay [12] is T3, USP7-CTD (535-1102). In words: fluorescence polarisation; USP7 proteins titrated (0 to 200 μM) into 40 nM N-terminally FITC-labeled peptide; 0.01% Triton X-100, 150 mM NaCl, 20 mM Tris pH 7.5. Conditions: both partners purified.
Assay [13] deals with T3, USP7-CTD (535-1102). In words: fluorescence polarisation; competition: fixed USP7-CTD (8 μM), 40 nM FITC-UHRF1, increasing unlabeled ICP0 peptide (0 to 2500 μM). Conditions: both partners purified.

T8 sequence (Q93009 535-889 D762A): as the sequence (Q93009 535-889 D762A/D764A) above, with A230D counted along it
T6 sequence (Q93009 535-889 D764A): as the sequence (Q93009 535-889 D762A/D764A) above, with A228D counted along it

B1: endogenous GMPS (natural protein)
chain: not shown
notes: GMP synthase (GMPS), endogenous in 293T cells; also called GMP synthase; source: endogenous, 293T lysate
For the molecule B1, the “percent binding relative to recovery with WT USP7” value in assay [1] is 35%.

B2: GST-ICP0 619-633 (peptide)
chain: RKCARKTRHAETSGA
notes: ICP0 of herpes simplex virus 1, residues 619-633; also called ICP0 peptide 619–633; source: E. coli BL21(DE3), purified (glutathione-sepharose)
Regarding B2, the binding result in [2] and in assay [3] was “binds” each time.

B3: endogenous UHRF1 (natural protein, human (endogenous in 293T), UniProt Q96T88 1-793, looked up)
chain: MWIQVRTMDGRQTHTVDSLSRLTKVEELRRKIQELFHVEPGLQRLFYRGKQMEDGHTLFDYEVRLNDTIQLLVRQSLVLPHSTKERDSELSDTDSGCCLGQSESDKSSTHGEAAAETDSRPADEDMWDETELGLYKVNEYVDARDTNMGAWFEAQVVRVTRKAPSRDEPCSSTSRPALEEDVIYHVKYDDYPENGVVQMNSRDVRARARTIIKWQDLEVGQVVMLNYNPDNPKERGFWYDAEISRKRETRTARELYANVVLGDDSLNDCRIIFVDEVFKIERPGEGSPMVDNPMRRKSGPSCKHCKDDVNRLCRVCACHLCGGRQDPDKQLMCDECDMAFHIYCLDPPLSSVPSEDEWYCPECRNDASEVVLAGERLRESKKKAKMASATSSSQRDWGKGMACVGRTKECTIVPSNHYGPIPGIPVGTMWRFRVQVSESGVHRPHVAGIHGRSNDGAYSLVLAGGYEDDVDHGNFFTYTGSGGRDLSGNKRTAEQSCDQKLTNTNRALALNCFAPINDQEGAEAKDWRSGKPVRVVRNVKGGKNSKYAPAEGNRYDGIYKVVKYWPEKGKSGFLVWRYLLRRDDDEPGPWTKEGKDRIKKLGLTMQYPEGYLEALANREREKENSKREEEEQQEGGFASPRTGKGKWKRKSAGGGPSRAGSPRRTSKKTKVEPYSLTAQQSSLIREDKSNAKLWNEVLASLKDRPASGSPFQLFLSKVEETFQCICCQELVFRPITTVCQHNVCKDCLDRSFRAQVFSCPACRYDLGRSYAMQVNQPLQTVLNQLFPGYGNGR
notes: UHRF1 (NP95), endogenous in 293T cells; also called NP95; source: endogenous, 293T lysate
For the molecule B3, in [1], the “percent binding relative to recovery with WT USP7” value was found to be 21%.

B4: GST-ICP0 611-625 (peptide)
chain: AASGPRGPRKCARKT
notes: ICP0 of herpes simplex virus 1, residues 611-625; also called ICP0 region 611–625; source: E. coli BL21(DE3), purified (glutathione-sepharose)
Take B4: the binding result in assay [2] and in [3] was “binds” in each case.

B5: FITC-labeled ICP0 peptide (peptide)
chain: {FITC′}-GPRKCARKTRH
A word on the Kd: it is the free concentration of one partner at which half of the binding sites on the other are occupied at equilibrium, for simple one-to-one binding. A high value points to weaker binding. In the case of B5, the Kd in assay [4] was 3.2 µM; in assay [5] it was over 100 µM; in [6] it was 1.6 µM; in assay [7] it was over 100 µM; in assay [8] it was over 100 µM; in [9], over 100 µM.

B6: GST-ICP0 615-629 (peptide)
chain: PRGPRKCARKTRHAE
notes: ICP0 of herpes simplex virus 1, residues 615-629; also called ICP0 peptide 615–629; GST-ICP0 peptide; source: E. coli BL21(DE3), purified (glutathione-sepharose)
Regarding B6, the binding result in assay [10], in assay [2], in assay [3] and in [11] was “binds” each time.

B7: FITC-GMPS peptide (peptide)
peptide: {FITC′}-DRTPRKRISKTLN
notes: GMP synthase (GMPS), residues 316-328 ('this GMPS peptide'); also called N-terminal FITC containing GMPS peptide; source: synthetic peptide (CanPeptide)
In [12], B7 yielded a Kd of 32 µM.

B8: FITC-UHRF1 peptide (peptide)
chain: {FITC′}-TGKGKWKR
Take B8: the affinity in assay [12], expressed as Kd, was 5.6 µM.

B9: GST-ICP0 594-775 (domain or fragment)
chain: AVGALGGRQEETSLGPRAASGPRGPRKCARKTRHAETSGAVPAGGLTRYLPISGVSSVVALSPYVNKTITGDCLPILDMETGNIGAYVVLVDQTGNMATRLRAAVPGWSRRTLLPETAGNHVMPPEYPTAPASEWNSLWMTPVGNMLFDQGTLVGALDFRSLRSRHPWSGEQGASTRDEGKQ
notes: ICP0 of herpes simplex virus 1, residues 594-775; also called longer ICP0 peptide; source: E. coli BL21(DE3), purified (glutathione-sepharose)
Consider B9, for which the binding result in assay [3] is reported as “binds”.

B10: GST-GMPS peptide (316-328) (peptide)
chain: {GST}-DRTPRKRISKTLN
notes: GMP synthase (GMPS), residues 316-328; also called WT GST-GMPS; source: E. coli BL21(DE3), purified (glutathione-sepharose)
B10: the binding result in [3] is listed as “binds”.

B11: unlabeled ICP0 peptide (peptide)
chain: GPRKCARKTRH
modifications: not fully specified
As usually defined, the Ki is the equilibrium dissociation constant of an inhibitor or competing ligand from its target. On to B11, for which the inhibitory constant (Ki) in [13] is 20.6 µM.

B12: ICP0 (expressed in 293T cells) (natural protein)
chain: MEPRPGASTRRPEGRPQREPAPDVWVFPCDRDLPDSSDSEAETEVGGRGDADHHDDDSASEADSTDTELFETGLLGPQGVDGGAVSGGSPPREEDPGSCGGAPPREDGGSDEGDVCAVCTDEIAPHLRCDTFPCMHRFCIPCMKTWMQLRNTCPLCNAKLVYLIVGVTPSGSFSTIPIVNDPQTRMEAEEAVRAGTAVDFIWTGNQRFAPRYLTLGGHTVRALSPTHPEPTTDEDDDDLDDADYVPPAPRRTPRAPPRRGAAAPPVTGGASHAAPQPAAARTAPPSAPIGPHGSSNTNTTTNSSGGGGSRQSRAAAPRGASGPSGGVGVGVGVVEAEAGRPRGRTGPLVNRPAPLANNRDPIVISDSPPASPHRPPAAPMPGSAPRPGPPASAAASGPARPRAAVAPCVRAPPPGPGPRAPAPGAEPAARPADARRVPQSHSSLAQAANQEQSLCRARATVARGSGGPGVEGGHGPSRGAAPSGAAPLPSAASVEQEAAVRPRKRRGSGQENPSPQSTRPPLAPAGAKRAATHPPSDSGPGGRGQGGPGTPLTSSAASASSSSASSSSAPTPAGAASSAAGAASSSASASSGGAVGALGGRQEETSLGPRAASGPRGPRKCARKTRHAETSGAVPAGGLTRYLPISGVSSVVALSPYVNKTITGDCLPILDMETGNIGAYVVLVDQTGNMATRLRAAVPGWSRRTLLPETAGNHVMPPEYPTAPASEWNSLWMTPVGNMLFDQGTLVGALDFRSLRSRHPWSGEQGASTRDEGKQ
notes: also called pCI-110 ICP0; source: 293T cells, transfected (pCI-110 ICP0), in lysate
Take B12: in [1], the “fold decrease of recovery against WT USP7” value turned out to be 2 fold.
